This is an account of results in article PMC3184163, “The Amino-Terminus of Nitric Oxide Sensitive Guanylyl Cyclase α1 Does Not Affect Dimerization but Influences Subcellular Localization” (PLoS ONE, 2011).

For data set [1], the target named is T1, nitric oxide sensitive guanylyl cyclase β1-subunit with carboxy-terminal Strep Tag II, P20595.
T1 chain: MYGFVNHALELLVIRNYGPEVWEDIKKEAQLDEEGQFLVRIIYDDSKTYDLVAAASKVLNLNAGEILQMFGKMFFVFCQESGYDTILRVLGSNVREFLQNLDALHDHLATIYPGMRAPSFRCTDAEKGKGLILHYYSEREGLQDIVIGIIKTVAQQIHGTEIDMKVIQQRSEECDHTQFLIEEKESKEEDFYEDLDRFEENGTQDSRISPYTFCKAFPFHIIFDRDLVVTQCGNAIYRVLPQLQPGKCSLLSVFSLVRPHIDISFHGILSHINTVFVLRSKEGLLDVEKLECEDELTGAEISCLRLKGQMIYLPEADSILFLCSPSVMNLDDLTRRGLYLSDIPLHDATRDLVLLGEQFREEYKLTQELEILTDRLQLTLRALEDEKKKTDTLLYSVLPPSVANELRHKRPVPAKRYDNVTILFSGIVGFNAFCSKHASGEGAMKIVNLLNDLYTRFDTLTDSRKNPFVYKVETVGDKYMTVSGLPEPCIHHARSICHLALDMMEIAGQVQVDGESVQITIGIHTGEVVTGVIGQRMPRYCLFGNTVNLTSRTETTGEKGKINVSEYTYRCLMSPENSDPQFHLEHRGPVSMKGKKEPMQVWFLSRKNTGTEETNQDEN
The experiment in a line: pull-down; co-purification: α1 variant expressed with carboxy-terminally Strep Tag II tagged β1 in Sf-9; cytosolic fraction applied to Strep-Tactin Superflow resin; buffer W 100 mM Tris-HCl, 1 M NaCl, 1 mM EDTA, 1 mM benzamidine, 10 mM DTT, pH 8.0; eluted with 2.5 mM D-desthiobiotin; on ice or at ….

In data set [2] the target is T2, nitric oxide sensitive guanylyl cyclase β1-subunit with carboxy-terminal Strep Tag II (UniProt P20595 1-619).
T2 construct: β1-subunit of nitric oxide sensitive guanylyl cyclase; PvuI/StuI fragment of the conjoined construct β1α1-Strep [27] in pFastBac1; predicted 72.2 kDa with tag; also called Strep tagged β1-subunit; source: Sf-9, recombinant baculovirus, cytosolic fraction; purified on Strep-Tactin Superflow; not shown: Strep Tag II, C-terminal, kept
T2 sequence (looked up): T1 chain
The experiment in a line: pull-down; co-purification: α1 variant expressed with carboxy-terminally Strep Tag II tagged β1 in Sf-9; cytosolic fraction applied to Strep-Tactin Superflow resin; buffer W 100 mM Tris-HCl, 1 M NaCl, 1 mM EDTA, 1 mM benzamidine, 10 mM DTT, pH 8.0; eluted with 2.5 mM D-desthiobiotin; on ice or at 4°C; SDS-PAGE, Coomassie staining, densitometry; cells also cultured without supplement, with hemin (4 mg/l), or with …. The settings on record: partners not purified.

B1: C-α1 splice variant of the nitric oxide sensitive guanylyl cyclase α1-subunit (human α1ΔN259) (domain or fragment, UniProt Q02108-1 259-690, looked up)
chain: MKSTKPSLSPSKPQSSLVIPTSLFCKTFPFHFMFDKDMTILQFGNGIRRLMNRRDFQGKPNFEEYFEILTPKINQTFSGIMTMLNMQFVVRVRRWDNSVKKSSRVMDLKGQMIYIVESSAILFLGSPCVDRLEDFTGRGLYLSDIPIHNALRDVVLIGEQARAQDGLKKRLGKLKATLEQAHQALEEEKKKTVDLLCSIFPCEVAQQLWQGQVVQAKKFSNVTMLFSDIVGFTAICSQCSPLQVITMLNALYTRFDQQCGELDVYKVETIGDAYCVAGGLHKESDTHAVQIALMALKMMELSDEVMSPHGEPIKMRIGLHSGSVFAGVVGVKMPRYCLFGNNVTLANKFESCSVPRKINVSPTTYRLLKDCPGFVFTPRSREELPPNFPSEIPGICHFLDAYQQGTNSKPCFQKKDVEDGNANFLGKASGID
notes: α1-subunit of nitric oxide sensitive guanylyl cyclase, human, amino-terminal deletion α1ΔN259; predicted 48 kDa; The name ΔN259 could also be read as loss of the first 259 residues; also called C-α1-splice form; source: Sf-9, recombinant baculovirus, cytosolic fraction; co-purified with β1-S on Strep-Tactin
For B1, the “relative heterodimerization by densitometry (% of α1WT)” value in data set [1] is 166.2 % (±12.2 %). Moreover, the “ratio of band intensities of the α1 variant to β1” value in data set [2] came to 0.75.

B2: nitric oxide sensitive guanylyl cyclase α1-subunit, wild type (human) (natural protein, UniProt Q02108-1 1-690, looked up)
chain: MFCTKLKDLKITGECPFSLLAPGQVPNESSEEAAGSSESCKATVPICQDIPEKNIQESLPQRKTSRSRVYLHTLAESICKLIFPEFERLNVALQRTLAKHKIKESRKSLEREDFEKTIAEQAVAAGVPVEVIKESLGEEVFKICYEEDENILGVVGGTLKDFLNSFSTLLKQSSHCQEAGKRGRLEDASILCLDKEDDFLHVYYFFPKRTTSLILPGIIKAAAHVLYETEVEVSLMPPCFHNDCSEFVNQPYLLYSVHMKSTKPSLSPSKPQSSLVIPTSLFCKTFPFHFMFDKDMTILQFGNGIRRLMNRRDFQGKPNFEEYFEILTPKINQTFSGIMTMLNMQFVVRVRRWDNSVKKSSRVMDLKGQMIYIVESSAILFLGSPCVDRLEDFTGRGLYLSDIPIHNALRDVVLIGEQARAQDGLKKRLGKLKATLEQAHQALEEEKKKTVDLLCSIFPCEVAQQLWQGQVVQAKKFSNVTMLFSDIVGFTAICSQCSPLQVITMLNALYTRFDQQCGELDVYKVETIGDAYCVAGGLHKESDTHAVQIALMALKMMELSDEVMSPHGEPIKMRIGLHSGSVFAGVVGVKMPRYCLFGNNVTLANKFESCSVPRKINVSPTTYRLLKDCPGFVFTPRSREELPPNFPSEIPGICHFLDAYQQGTNSKPCFQKKDVEDGNANFLGKASGID
notes: predicted 77.6 kDa; also called α1WT; α1 full-length; source: Sf-9, recombinant baculovirus, cytosolic fraction; co-purified with β1-S on Strep-Tactin
As for B2, the “ratio of band intensities of the α1 variant to β1” value in data set [2] was determined as 0.43.
